Measured values as given in article PMC314469, “Protein Interaction Networks by Proteome Peptide Scanning” (PLoS Biology, 2004).

T1: Yhr016c SH3 (YSC84_YEAST), P32793
T1 chain: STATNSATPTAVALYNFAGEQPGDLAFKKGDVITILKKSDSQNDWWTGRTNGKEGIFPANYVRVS

T2: Rvs167 SH3 (RV167_YEAST), P39743
T2 chain: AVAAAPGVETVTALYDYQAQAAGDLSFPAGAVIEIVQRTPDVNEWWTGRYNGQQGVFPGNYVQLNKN

T3: Yfr024 SH3 (LSB3_YEAST), P43603
T3 chain: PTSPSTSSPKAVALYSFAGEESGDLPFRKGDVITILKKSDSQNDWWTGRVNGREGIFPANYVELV

T4: Boi1 SH3 (BOI1_YEAST), P38041
T4 chain: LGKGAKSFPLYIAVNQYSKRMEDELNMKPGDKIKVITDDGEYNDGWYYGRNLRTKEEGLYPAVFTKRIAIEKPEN

T5: Myo5 SH3 (MYO5_YEAST), Q04439
T5 chain: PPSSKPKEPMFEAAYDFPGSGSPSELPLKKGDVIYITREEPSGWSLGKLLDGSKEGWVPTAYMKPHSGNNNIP

T6: Boi2 SH3 (BOI2_YEAST), P39969
T6 chain: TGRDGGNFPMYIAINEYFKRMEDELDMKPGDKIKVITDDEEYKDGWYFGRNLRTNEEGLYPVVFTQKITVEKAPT


Columns and labels:
Assay in all cases: SPOT array
[1] = target: T1, Yhr016c SH3 (YSC84_YEAST), P32793
[2] = target: T2, Rvs167 SH3 (RV167_YEAST), P39743
[3] = target: T3, Yfr024 SH3 (LSB3_YEAST), P43603
[4] = target: Sho1 SH3 (SHO1_YEAST), P40073
Chain of Sho1 SH3 (SHO1_YEAST), P40073 (P40073 295-366): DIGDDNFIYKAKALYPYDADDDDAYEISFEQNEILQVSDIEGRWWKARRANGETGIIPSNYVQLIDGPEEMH

[5] = target: T4, Boi1 SH3 (BOI1_YEAST), P38041
[6] = target: T5, Myo5 SH3 (MYO5_YEAST), Q04439
[7] = target: T6, Boi2 SH3 (BOI2_YEAST), P39969

| normalised SPOT signal, Boehringer light units (BLU); mean over the file's lines of this peptide [1] | normalised SPOT signal, Boehringer light units (BLU); mean over the file's lines of this peptide [2] | normalised SPOT signal, Boehringer light units (BLU); mean over the file's lines of this peptide [3] | normalised SPOT signal, Boehringer light units (BLU); mean over the file's lines of this peptide [4] | normalised SPOT signal, Boehringer light units (BLU); mean over the file's lines of this peptide [5] | normalised SPOT signal, Boehringer light units (BLU); mean over the file's lines of this peptide [6] | normalised SPOT signal, Boehringer light units (BLU); mean over the file's lines of this peptide [7] | Binder |
| --- | --- | --- | --- | --- | --- | --- | --- |
| 18.7 | 46.8 | 69.9 | 14.5 | 133 | 108 | 9.6 | GSQWKNHPDWPFWV [YLR057W 726-739] |
| 52 | 153 | 436 | 554 | 129 | 206 | 32.5 | GSYIKRTPKIPEKD [YDR026C 219-232] |
| 15.8 | 49.6 | 62 | 28.3 | 61.5 | 10300 | 14.2 | GNNSRNIPPPPPPP [YMR089C 148-161] |
| 37.9 | 47.7 | 68.7 | 43.8 | 15 | 100 | 21 | GQIDRDKPSEPERT [YJL184W 45-58] |
| 342 | 73 | 1010 | 62.6 | 2030 | 164 | 6.1 | GLDLKWEPSTPQRK [YLR460C 162-175] |
| 24.5 | 3.1 | 29.4 | 36.4 | 2160 | 218 | 4.7 | GKDHRLAPNGPGMH [YDR333C 253-266] |
| 106 | 1120 | 440 | 44.9 | 370 | 820 | 119 | GRSLRKRPTSPSIS [YJR059W 48-61] |
| 152 | 10.9 | 1020 | 62.8 | 447 | 105 | 4.6 | GLNLKWEPSTPQRN [YCR102C 154-167] |
| 302 | 5260 | 2380 | 60.9 | 116 | 209 | 126 | GLVLRSTPVIPDMK [YPR019W 330-343] |
| 31.6 | 22.1 | 432 | 11800 | 148 | 773 | 27.1 | GTRPKILPKIPTGA [YOR227W 1148-1161] |
| 69.5 | 176 | 947 | 198 | 702 | 1040 | 6.1 | GRHLKNIPRIPIFS [YLR106C 2506-2519] |
| 984 | 1050 | 1990 | 148 | 64.2 | 645 | 153 | GKMVKWGPLRPFLS [YOL072W 279-292] |
| 41.6 | 275 | 606 | 63.1 | 118 | 287 | 40 | GLMSKLGPNLPASI [YLR092W 403-416] |
| 82.1 | 21.1 | 509 | 22.8 | 907 | 422 | 25.5 | GSLVKTKPTLPLTK [YLR339C 59-72] |
| 24 | 92.4 | 802 | 52.3 | 625 | 921 | 52 | GTGRRRSPSTPIMP [YNR047W 192-205] |
| 140 | 111 | 697 | 47.2 | 1200 | 728 | 9.3 | GQQKRFSPSLPSAV [YKL088W 110-123] |
